Experimental data from US20150299277A1, “AGENT FOR TREATING OR PREVENTING SYSTEMIC INFLAMMATORY RESPONSE SYNDROME” (THE UNIVERSITY OF TOKYO, priority 2012, published 2015).

Molecular target: T1, histone H2A (Homo sapiens, UniProt Q7L7L0)
T1 construct: purchased NEB
Experiment: ELISA binding assay
Details: immobilized recombinant histone
Description: Recombinant human histone (NEB) was adjusted to a concentration of 1 μg/mL in TBS, added to a 96 well ELISA plate, and immobilized at 4° C. overnight. The solution was discarded, a blocking buffer (TBS, 0.1% Triton-X100, 1% BSA) was added, and the plate was incubated at room temperature for 2 hr. The plate was washed four times with a wash buffer (TBS, 0.1% Triton-X100), recombinant PTX3 diluted to various concentrations with the blocking buffer was added to each well, and reacted at room temperature for 1 hr. After washing four times with the wash buffer, HRP-labeled antibody diluted with the blocking buffer was added, and reacted at room temperature for 1 hr. After washing four times with the wash buffer, TMB solution was added to carry out a color development reaction for 30 min, and the absorbance at 450 nm was measured. Assay was performed using all the buffers containing 4 mM CaCl2 or 4 mM EDTA.
The binding level between immobilized each recombinant histone and a tagged human PTX3 fragment was measured by binding assay (ELISA). For detection, HRP-labeled anti-His (6×His) antibody was used. ELISA was performed with duplicate wells for each point, and means and standard deviations were calculated from three independent experiments.

Q: How did the “bindability to histone H2A (binding assay)” value turn out when “N-terminal domain of PTX3: N-terminal domain human PTX3 (18-178 amino acids, SEQ ID NO: 3), tagged, expressed in CHO cells or Escherichia coli” was run?
A: lower than that of the full-length PTX3
